From patent US20230151091A1 (NEW YORK UNIVERSITY, published 2023) come the findings set out here.

For experiment [1], the target named is T1, mFz: Fz domain and C-terminal flanking sequence of mouse MuSK (D307 to T494) with C-terminal Avi- and … (mouse, UniProt Q61006 307-494, limits assumed, biotinylated in vitro using the BirA enzyme).
T1 construct: also called mouse Fz; not shown: Avi- and His6-tags
T1 sequence (looked up): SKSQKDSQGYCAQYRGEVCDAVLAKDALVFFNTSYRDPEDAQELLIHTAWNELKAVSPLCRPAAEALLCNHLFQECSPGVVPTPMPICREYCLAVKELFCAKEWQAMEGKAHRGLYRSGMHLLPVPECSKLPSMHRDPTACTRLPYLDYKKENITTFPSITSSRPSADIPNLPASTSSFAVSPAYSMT
Put plainly: bead-binding assay, IgG format: biotinylated antigen on streptavidin beads, flow cytometry, 1:1 fit; average ± s.d., n=3. For orientation: A flow cytometer gives signals particle by particle.

The target in experiment [2] is T2, hFz: Fz domain and C-terminal flanking sequence of human MuSK (K314-T495) with C-terminal Avi- and His6-tags (human, UniProt O15146 314-495, biotinylated in vitro using the BirA enzyme).
T2 construct: also called human Fz; not shown: Avi- and His6-tags
T2 sequence: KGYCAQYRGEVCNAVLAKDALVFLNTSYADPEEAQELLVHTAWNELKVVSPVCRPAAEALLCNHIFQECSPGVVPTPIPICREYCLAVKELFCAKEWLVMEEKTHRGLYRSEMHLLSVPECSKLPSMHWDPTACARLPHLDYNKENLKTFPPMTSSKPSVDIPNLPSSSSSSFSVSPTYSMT
Described as above.

Experiment [3] has as its target T3, hECD: full-length extracellular region of human MuSK (E22 to T495) with C-terminal Avi- and His6-tags (human, UniProt O15146 22-495, biotinylated in vitro using the BirA enzyme).
T3 construct: also called human ECD; not shown: Avi- and His6-tags
T3 sequence: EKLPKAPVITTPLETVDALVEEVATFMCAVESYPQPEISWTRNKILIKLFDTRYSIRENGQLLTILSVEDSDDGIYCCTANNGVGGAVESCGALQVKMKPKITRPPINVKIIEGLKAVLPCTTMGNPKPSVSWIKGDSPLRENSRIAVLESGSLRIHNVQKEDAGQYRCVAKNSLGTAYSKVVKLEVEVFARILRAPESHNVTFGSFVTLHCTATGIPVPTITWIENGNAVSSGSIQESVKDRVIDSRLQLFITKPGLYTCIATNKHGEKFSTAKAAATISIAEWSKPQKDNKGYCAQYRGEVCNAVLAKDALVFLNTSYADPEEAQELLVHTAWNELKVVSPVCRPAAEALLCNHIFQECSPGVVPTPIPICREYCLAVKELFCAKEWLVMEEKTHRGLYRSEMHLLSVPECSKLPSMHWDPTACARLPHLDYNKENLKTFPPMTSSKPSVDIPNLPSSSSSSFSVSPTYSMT
Described as above.

For experiment [4], the target named is T4, mECD: full-length extracellular region of mouse MuSK (E22 to T494) with C-terminal Avi- and His6-tags (mouse, UniProt Q61006 22-494, biotinylated in vitro using the BirA enzyme).
T4 construct: range 22-494; also called mouse ECD; not shown: Avi- and His6-tags
T4 sequence (looked up): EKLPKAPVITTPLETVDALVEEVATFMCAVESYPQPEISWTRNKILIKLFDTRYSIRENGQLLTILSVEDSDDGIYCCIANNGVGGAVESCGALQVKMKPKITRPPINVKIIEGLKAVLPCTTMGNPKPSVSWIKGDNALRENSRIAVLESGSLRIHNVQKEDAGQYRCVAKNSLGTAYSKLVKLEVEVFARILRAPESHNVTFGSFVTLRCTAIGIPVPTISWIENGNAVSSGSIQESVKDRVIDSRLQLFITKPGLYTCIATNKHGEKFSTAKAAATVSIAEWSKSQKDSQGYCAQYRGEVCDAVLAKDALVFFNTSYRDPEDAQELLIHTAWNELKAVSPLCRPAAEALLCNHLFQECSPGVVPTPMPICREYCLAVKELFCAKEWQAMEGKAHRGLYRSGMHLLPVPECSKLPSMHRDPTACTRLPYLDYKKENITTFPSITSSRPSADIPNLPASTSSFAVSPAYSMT
Described as above.

Experiment [5] addresses T5, mouse MuSK (mouse, UniProt Q61006 22-494, limits assumed).
T5 construct: Coated on ELISA plates or on the Biacore chip; also called full length mouse MuSK; mouse MuSK (in house produced in HEK293 cells)
T5 sequence (looked up): T4 sequence (looked up)
As to the kind of experiment: Biacore T200, off rate at pH 5.5 against pH 7.4. Here is the method: (§1) In order to study pH dependent binding of the antibodies described herein to MuSK, a Biacore T200 was used. Briefly, a CMS chip was coated with human and mouse MuSK (200RU) and 22.2 nM of Fab was applied and kinetic parameters calculated. Association was done at pH7.4, dissociation was done at pH 7.4 and also at pH 5.5. The following Fabs were tested, X2, X2m4, X3, X9, X17, 3B2 and 3B2g2m1 (Table 10 and FIG. 23). […] Binding affinity at pH 5.5 is very low, resulting in a rapid dissociation at endosomal pH allowing 3B2g2m1 to recycle.
(SPR reads the build-up and loss of mass on a sensor chip optically.)

Experiment [6] concerns the target T6, human MuSK (human, UniProt O15146 24-495).
T6 construct: Recombinant protein coated on ELISA plates (R&D Systems cat. 10189-MK) or on the Biacore chip; also called human muscle-specific tyrosine protein kinase; full length human MuSK
T6 sequence: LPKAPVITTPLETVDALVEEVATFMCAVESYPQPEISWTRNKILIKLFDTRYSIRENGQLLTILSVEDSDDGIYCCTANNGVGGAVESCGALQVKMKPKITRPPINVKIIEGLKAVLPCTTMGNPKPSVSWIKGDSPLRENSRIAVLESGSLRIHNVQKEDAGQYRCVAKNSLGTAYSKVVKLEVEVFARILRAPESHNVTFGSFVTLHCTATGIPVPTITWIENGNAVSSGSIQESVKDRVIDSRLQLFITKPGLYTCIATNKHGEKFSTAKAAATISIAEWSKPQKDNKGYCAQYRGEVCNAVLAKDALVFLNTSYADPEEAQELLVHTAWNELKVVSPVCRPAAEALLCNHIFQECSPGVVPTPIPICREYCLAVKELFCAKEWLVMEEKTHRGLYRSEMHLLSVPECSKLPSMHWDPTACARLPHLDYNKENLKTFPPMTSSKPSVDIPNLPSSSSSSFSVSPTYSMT
As to the kind of experiment: Biacore T200, off rate at pH 5.5 against pH 7.4. Here is the method: as §1

Experiment [7] has as its target T5, mouse MuSK. Put plainly: Biacore T200, MuSK on chip (200RU), 22.2 nM Fab, dissociation pH 7.4. Here is the method: as §1
In experiment [8] the target is T6, human MuSK. The description is as above. Here is the method: as §1
Experiment [9] has as its target T5, mouse MuSK. As to the kind of experiment: Biacore T200, MuSK on chip (200RU), 22.2 nM Fab, dissociation pH 5.5. Here is the method: as §1
Experiment [10] deals with T6, human MuSK. The experiment is described as above. Here is the method:
as §1

Changes are numbered by the printed parent chain.

B1: hIgG1-X17 (antibody, V domains shown)
VH: EVQLVESGGGLVQPGGSLRLSCAASGFTISYSSIHWVRQAPGKGLEWVASIYSSSGSTYYADSVKGRFTISADTSKNTAYLQMNSLRAEDTAVYYCARGDHGYYVFGYLGMDYWGQGTLVTVSS
VL: DIQMTQSPSSLSASVGDRVTITCRASQSVSSAVAWYQQKPGKAPKLLIYSASSLYSGVPSRFSGSRSGTDFTLTISSLQPEDFATYYCQQSYKPGALITFGQGTKVEIK
notes: human IgG1 Fc containing LALA mutations; also called hIgG-X17; X17 in human IgG1 format
One may read the Kd as a measure of binding affinity in units of concentration. A high value points to weaker binding. As to B1, the Kd in [1] turned out to be 0.68 nM; in experiment [2] it was 0.56 nM; in experiment [3], 0.86 nM; in experiment [4], 1.04 nM.

B2: X2m4 Fab (Fab, V domains shown)
VH: EVQLVESGGGLVQPGGSLRLSCAASGFTVSSSSIHWVRQAPGKGLEWVASISSSYGSTSYADSVKGRFTISADTSKNTAYLQMNSLRAEDTAVYYCARSEGDRYVSGYSGLDYWGQGTLVTVSS
VL: DIQMTQSPSSLSASVGDRVTITCRASQSVSSAVAWYQQKPGKAPKLLIYSASSLYSGVPSRFSGSRSGTDFTLTISSLQPEDFATYYCQQSGVWLITFGQGTKVEIK
notes: Fab format
As a reminder, the koff is the rate constant with which the complex falls apart. Lower therefore signals slow dissociation. On to B2, for which the “Ratio pH 5.5/7.4 of off rate” value worked out at 1.2 in the experiment with mouse MuSK [5] and 0.7 with human MuSK [6]. Besides, the koff with mouse MuSK [7] turned out to be 0.00337 s⁻¹; with human MuSK [8], 0.00867 s⁻¹; with mouse MuSK [9], 0.00416 s⁻¹; in the experiment with human MuSK [10] it was 0.00586 s⁻¹.

B3: X9 Fab (Fab, V domains shown)
VH: EVQLVESGGGLVQPGGSLRLSCAASGFTFSSSSIHWVRQAPGKGLEWVASIYSSSGSTYYADSVKGRFTISADTSKNTAYLQMNSLRAEDTAVYYCARSGGEFYITSYYGMDYWGQGTLVTVSS
VL: B2 VL with G92S, V93S, W94S
notes: Fab format
In the case of B3, the “Ratio pH 5.5/7.4 of off rate” value with mouse MuSK [5] was 7.1; with human MuSK [6] it was 1.4. In addition, the koff in the experiment with mouse MuSK [7] was 0.00015 s⁻¹; in the experiment with human MuSK [8], 0.00059 s⁻¹; with mouse MuSK [9], 0.00105 s⁻¹; in the experiment with human MuSK [10], 0.00083 s⁻¹.

B4: 3B2g2m1 Fab (Fab, V domains shown)
VH: EVQLLESGGGLVQPGGSLRLSCAASGFTFSDYGMSWVRQAPGKGLEWVSAIPWSGGSTYYKESVKGRFTISRDNSKNTLYLQMNSLRAEDTAVYYCAKRSGRIAFGALDAWGQGTLVTVSS
VL: QTVVTQEPSFSVSPGGTVTLTCGLSSGSVTSSNYPDWYQQTPGQAPRTLIYSTDSRHSGVPDRFSGSILGNKAALTITGAQADDESDYYCGLYSYSGSKNYVFGGGTKLTVL
notes: Fab format
B4: the entries for the “Ratio pH 5.5/7.4 of off rate” value in the experiment with mouse MuSK [5] and in the experiment with human MuSK [6] were 8.9 and 6.1, respectively. The koff with mouse MuSK [7] was 0.00766 s⁻¹; with human MuSK [8], 0.00472 s⁻¹; with mouse MuSK [9], 0.0679 s⁻¹; with human MuSK [10], 0.0288 s⁻¹.
